Data from paper PMC5895741, “Quantitative characterization of all single amino acid variants of a viral capsid-based drug delivery vehicle” (Nature Communications, 2018).

Biological target: the molecule itself
Assay: SEC; in vitro acid screen of purified VLPs; HPLC SEC peak height relative to pH 7.3 (normalized acid tolerance, n = 3)

B1: MS2 bacteriophage coat protein CP[T71H/E76C] (natural protein)
chain: ASNFTQFVLVDNGGTGDVTVAPSNFANGVAEWISSNSRSQAYKVTCSVRQSSAQNRKYTIKVEVPKVATQHVGGVCLPVAAWRSYLNMELTIPIFATNSDCELIVKAMQGLLKDGNPIPSAIAANSGIY
notes: MS2 bacteriophage coat protein (MS2 CP); also called CP[T71/E76C]; double mutant
- binding result: binds
